In the supplement of paper PMC10724198:

How the values were obtained:
Saccharomyces cerevisiae [1] = assay: protein stability index of tFT-peptide fusion in wild type (PSI (0-1 scale)); higher = more stable (slower turnover); conditions: genetic background: wild type
Description: (§1)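 MPS profiling in S. cerevisiae of two library types built from selected 12-aa C-degron peptides (IN1, IN2, LN1, LN3, VN2, R1-R5, W1-W3, Atg1 and Rpa12 C-termini): saturation mutagenesis libraries and C-terminal +1 capping libraries (13 aa). Each peptide is fused to the C-terminus of a sfGFP-mCherry timer, after a GGGS linker. Cells are FACS-sorted into 8 mCherry/sfGFP bins and sequenced. PSI runs from 0 (unstable) to 1 (stable), measured once in wild type and in the das1Δ or doa10Δ background.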

Saccharomyces cerevisiae [2] = assay: protein stability index of tFT-peptide fusion in deletion strain of DAS1 (PSI (0-1 scale)); higher = more stable (slower turnover)
Description: as §1
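Wherever protein stability index of tFT-peptide fusion in deletion strain of DAS1 is given: PSI is a weighted mean of each variant's read distribution over the sorted stability bins, computed only for variants having over 10 reads in total.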
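Wherever protein stability index of tFT-peptide fusion in wild type is given: PSI derived as read-weighted mean over the 8 sorting bins, only variants exceeding 10 total reads kept, mCherry placed adjacent to the peptide and sfGFP distal.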

Sequence	protein stability index (Saccharomyces cerevisiae [1])	protein stability index (Saccharomyces cerevisiae [2])
TVVYLSCVACIN	0.0176	0.0307
ARARVGLWRGAS	0.531	0.688
ARWRVGLQRGAS	0.677	0.69
CTSCRYKFRTNN	0.395	0.68
CTSCGYDFRTNN	0.639	0.691
KKHKKGQKQKID	0.547	0.611
PLKRNHLIKLLN	0.135	0.622
ARWRVGLWRGASF	0.661	0.679
QRWRVGLWRGAS	0.345	0.683
VRGAVGGWRMVG	0.155	0.685
ARWRHGLWRGAS	0.666	0.685
RLIQPLPGQFLN	0.282	0.612
LKILRQQMNHQN	0.206	0.584
PDKRNHSIKLLN	0.174	0.631
LKILRGKMNHQN	0.297	0.674
PSLAASFWRCVG	0.144	0.674
LVVYPSCVACIN	0.248	0.337
PDKRNHLIKLLF	0.269	0.576
PDKGNHLIKLLN	0.23	0.635
PSEAASFWRVVG	0.175	0.702

Sequence	protein stability index (Saccharomyces cerevisiae [1])	protein stability index (Saccharomyces cerevisiae [2])
ARWRVGLWEGAS	0.675	0.658
KKHKKGQSQKIN	0.204	0.676
RLRQPLPVQFLN	0.0588	0.593
FSMRWTFRYWFN	0.318	0.503
PDKRNHLIKLLNV	0.203	0.659
LVVYLSCVARIN	0.0258	0.0375
VRGAVWGWRLVG	0.108	0.649
LKILRQKMNNQN	0.267	0.707
VRGAVGGWRKVG	0.133	0.68
RLIQPLPVQFLNF	0.462	0.659
PQKRNHLIKLLN	0.113	0.597
KKHKKGQGQKIN	0.42	0.59
RLIQPLPVQELN	0.525	0.703
VRGAVGGPRLVG	0.661	0.669
RLIQPLPVQFIN	0.0372	0.583
PDHRNHLIKLLN	0.0948	0.589
VRGAVGGWRLVGV	0.649	0.659
VRAAVGGWRLVG	0.14	0.681
RLMQPLPVQFLN	0.1	0.572
FSMRWTFRYWIN	0.0567	0.469

Sequence	protein stability index (Saccharomyces cerevisiae [1])	protein stability index (Saccharomyces cerevisiae [2])
FSMRWTFRCWVN	0.17	0.425
ARWHVGLWRGAS	0.365	0.71
RLIQPLPVYFLN	0.0711	0.729
LVILRQKMNHQN	0.135	0.675
WSMRWTFRYWVN	0.0469	0.48
FSMRWTFRYEVN	0.168	0.509
CTSCGYKFTTNN	0.675	0.704
ARWRVGLWREAS	0.169	0.668
KKHKKGQKQKPN	0.617	0.722
PSCAASFWRVVG	0.154	0.691
CTSCGYKFRTNK	0.689	0.704
PDKRNHLIKLLNQ	0.316	0.667
PDKRNHLGKLLN	0.428	0.593
CTSCGYQFRTNN	0.496	0.692
VQGAVGGWRLVG	0.14	0.708
AFWRVGLWRGAS	0.496	0.704
VRGAVLGWRLVG	0.146	0.677
LKILRQKMNGQN	0.353	0.659
HTSCGYKFRTNN	0.215	0.677
